Test results from the Human Domainome abundance scans (Beltran et al. 2025).
± gives the uncertainty stated by the source.

B1: Glucocorticoid receptor, residues 419 to 494; numbered along this chain, P04150 (parent)
chain: KLCLVCSDEASGCHYGVLTCGSCKVFFKRAVEGQHNYLCAGRNDCIIDKIRRKNCPACRYRKCLQAGMNLEARKTK

Variants of: B1
Experiment: abundance fitness (aPCA) (normalised: wild type 0, dead -1); higher = more abundant; growth selection in yeast, the domain comes from the species named
Details: Homo sapiens

With KLCLVCSDEASNCHYGVLTCGSCKVFFKRAVEGQHNYLCAGRNDCIIDKIRRKNCPACRYRKCLQAGMNLEARKTK as the variant, how does the abundance fitness read?
Its abundance fitness is -0.093 ± 0.071.

For KLCLVCSDEASGCHYGVLTCGSCKVFFKRAVEGQHNYLCPGRNDCIIDKIRRKNCPACRYRKCLQAGMNLEARKTK, which abundance fitness is on record?
The abundance fitness was -0.066 ± 0.053.

For KLCLVCSDEASGCHYGVLTCGSCKVFFKRAVEGQHNYLVAGRNDCIIDKIRRKNCPACRYRKCLQAGMNLEARKTK, which abundance fitness is on record?
Its abundance fitness is -1 ± 0.13.

For KLCLVCSDEASGCHYGVLTCGSCKVFFKRAVEGQHNNLCAGRNDCIIDKIRRKNCPACRYRKCLQAGMNLEARKTK, which abundance fitness is on record?
Its abundance fitness is -0.026 ± 0.066.

With KLCLVCSDEASGCHYGVLTSGSCKVFFKRAVEGQHNYLCAGRNDCIIDKIRRKNCPACRYRKCLQAGMNLEARKTK as the variant, how does the abundance fitness read?
The abundance fitness was -1.4 ± 0.35.

Which abundance fitness does the source give for KLCLVCSDEASGCHYGVLTCGSCTVFFKRAVEGQHNYLCAGRNDCIIDKIRRKNCPACRYRKCLQAGMNLEARKTK here?
Its abundance fitness is -0.096 ± 0.059.

For KLCLVCSDEAFGCHYGVLTCGSCKVFFKRAVEGQHNYLCAGRNDCIIDKIRRKNCPACRYRKCLQAGMNLEARKTK, which abundance fitness is on record?
Its abundance fitness is -0.127 ± 0.088.

For KLCLVCSDEASGCHYGVLTCGSCKVFFKWAVEGQHNYLCAGRNDCIIDKIRRKNCPACRYRKCLQAGMNLEARKTK, which abundance fitness is on record?
Its abundance fitness is -0.095 ± 0.046.

With KLCLVCSDEASGCHIGVLTCGSCKVFFKRAVEGQHNYLCAGRNDCIIDKIRRKNCPACRYRKCLQAGMNLEARKTK as the variant, how does the abundance fitness read?
The abundance fitness was -0.298 ± 0.084.

With KLCLVCSDEASGCHYGVLTCGSCKVFFKRAVEGQHNYLCAGRNDCIIDKIRRKNSPACRYRKCLQAGMNLEARKTK as the variant, how does the abundance fitness read?
Its abundance fitness is -0.707 ± 0.098.

For KLCLVCSDEASGCHYGVLTCGSCKVFFHRAVEGQHNYLCAGRNDCIIDKIRRKNCPACRYRKCLQAGMNLEARKTK, which abundance fitness is on record?
The abundance fitness was -0.001 ± 0.065.

Which abundance fitness does the source give for KLCLVCSDEASGCHYGVLTCGSCKVFFKRAVEGEHNYLCAGRNDCIIDKIRRKNCPACRYRKCLQAGMNLEARKTK here?
Its abundance fitness is -0.051 ± 0.051.

For KLCLVCSDEASGCHYGVLTCGSCKVFFKRAVEGQHNYLCAGRNDCIIDKIRRKNCPPCRYRKCLQAGMNLEARKTK, which abundance fitness is on record?
Its abundance fitness is -0.247 ± 0.053.

For KLCLVCSDEASGCHYGVLTCGSCKVFFKRAVEGQHNYLCAGRNDCIIDKIRRKNCPACRYRKCLQAGMNLEARRTK, which abundance fitness is on record?
Its abundance fitness is 0.054 ± 0.037.

Which abundance fitness does the source give for KLCLVCSDEASGCHYGILTCGSCKVFFKRAVEGQHNYLCAGRNDCIIDKIRRKNCPACRYRKCLQAGMNLEARKTK here?
Its abundance fitness is 0.129 ± 0.095.

With KLCLVCSDEASGCHYGVLTCGSCKVHFKRAVEGQHNYLCAGRNDCIIDKIRRKNCPACRYRKCLQAGMNLEARKTK as the variant, how does the abundance fitness read?
Its abundance fitness is -0.513 ± 0.16.

For KLCLVCSDEASGCHYGVLTCGSCKVFFKRAVEGQHNYLCIGRNDCIIDKIRRKNCPACRYRKCLQAGMNLEARKTK, which abundance fitness is on record?
Its abundance fitness is -0.038 ± 0.079.

With KLCLVCSDEASGCHYGVLTCGSCKVFFKRAVEGQHNYLCAGRNDCIIDKIRRKNCPACRYRKCLQAGMNLEARLTK as the variant, how does the abundance fitness read?
Its abundance fitness is 0.077 ± 0.038.

Which abundance fitness does the source give for KLCLVCSDEASGCHYGVLTCGSCKVFFKRAVEGQHNYLCAGRNDCIIDKIRRKNCPACRYRKCLQAGMNLEARKWK here?
Its abundance fitness is 0.047 ± 0.052.

For KLCLVCSDEASQCHYGVLTCGSCKVFFKRAVEGQHNYLCAGRNDCIIDKIRRKNCPACRYRKCLQAGMNLEARKTK, which abundance fitness is on record?
The abundance fitness was -0.034 ± 0.048.

For KLCLVCSDEASGCHYGVLTCGSCKVFFKRAVEGQHNYLCAGRNDCIIDKIRRKNCPACRYRKCLQAGMNLEARKIK, which abundance fitness is on record?
Its abundance fitness is -0.044 ± 0.072.

With KLCLVCSDEASGCHYGVLTCGSCKVFFKRAVEGQHNYLCAGRNDCIIDKIRRKNCPACRYRKCLQAGMNLEARKSK as the variant, how does the abundance fitness read?
Its abundance fitness is 0.008 ± 0.043.

For KLCLVCSDEASGCHYGVLTCGSCKVFFKRAVEGQHNYLCAGRNDCIIDKIRRKNCPACRYRKCLQIGMNLEARKTK, which abundance fitness is on record?
Its abundance fitness is -0.242 ± 0.073.

With KLCLVCSDEASACHYGVLTCGSCKVFFKRAVEGQHNYLCAGRNDCIIDKIRRKNCPACRYRKCLQAGMNLEARKTK as the variant, how does the abundance fitness read?
The abundance fitness was -0.101 ± 0.041.

For KLCLVCSDEASGCHYGVLTCGSCKVFFKRAVEGQHNYLCAWRNDCIIDKIRRKNCPACRYRKCLQAGMNLEARKTK, which abundance fitness is on record?
Its abundance fitness is -0.017 ± 0.037.

For KLCLVCSDEASGCHYGVLTCGSCKVFFKRAVEGQHNYLCAGRNDCIIDKIRRKNCPAKRYRKCLQAGMNLEARKTK, which abundance fitness is on record?
The abundance fitness was -1.06 ± 0.37.

Which abundance fitness does the source give for KLCLVCSDEASGCHYGVLTCGSCKVFFKRAVEGQHNYLCAGRNDCIIDKIRRKNCPACRMRKCLQAGMNLEARKTK here?
Its abundance fitness is -0.07 ± 0.049.

With KLCLVCSDEASGCHYGVLTCGSCKVFFKRAVEGQANYLCAGRNDCIIDKIRRKNCPACRYRKCLQAGMNLEARKTK as the variant, how does the abundance fitness read?
Its abundance fitness is 0.018 ± 0.04.

For KLCLVCSDEASGCHYGCLTCGSCKVFFKRAVEGQHNYLCAGRNDCIIDKIRRKNCPACRYRKCLQAGMNLEARKTK, which abundance fitness is on record?
Its abundance fitness is 0.057 ± 0.062.

For KLCLVCSDEASGCHYGVLTCGSCKVFFKRAVEGQHNYLCAGRNLCIIDKIRRKNCPACRYRKCLQAGMNLEARKTK, which abundance fitness is on record?
Its abundance fitness is -0.189 ± 0.045.

With KLCLVCSDEASGCHYGVLTCGSCKVFFKRAVEGQHNYLCAGRNDCIIDKIRRKNCPACWYRKCLQAGMNLEARKTK as the variant, how does the abundance fitness read?
The abundance fitness was 0.017 ± 0.037.

Which abundance fitness does the source give for KLCLVCSDEASGCHYGVLTCGSCKVFFKRAVEGQHNYLCAGREDCIIDKIRRKNCPACRYRKCLQAGMNLEARKTK here?
The abundance fitness was 0.011 ± 0.044.

For KLCLVCSDEASGCHYGVLTCGSCEVFFKRAVEGQHNYLCAGRNDCIIDKIRRKNCPACRYRKCLQAGMNLEARKTK, which abundance fitness is on record?
Its abundance fitness is 0.011 ± 0.079.

With KLELVCSDEASGCHYGVLTCGSCKVFFKRAVEGQHNYLCAGRNDCIIDKIRRKNCPACRYRKCLQAGMNLEARKTK as the variant, how does the abundance fitness read?
Its abundance fitness is -0.787 ± 0.12.

For KLCLVCSDEASGCHYGVLTCGSCKVFFKRAVEGQHNYLCAGRNDCIIDKIRRINCPACRYRKCLQAGMNLEARKTK, which abundance fitness is on record?
Its abundance fitness is -0.091 ± 0.076.

Which abundance fitness does the source give for KLCLVCSDEASGCHYGVLTCGSCKVFFKRAVEGQHNYLCAGRNDCIIDKIRLKNCPACRYRKCLQAGMNLEARKTK here?
The abundance fitness was -0.048 ± 0.036.
